Source: US20260022175A1 (Chugai, published 2026)
Changes are numbered by the printed parent chain. Names may count otherwise. One block for each binder: values may come before it.

Legend:
[1] = molecular target: T1, human FcγRIIb extracellular domain with C-terminal His-tag (human, UniProt P31994 43-217); test: SPR; binding amount divided by that of 04H1637-G1m/04L1610-lam1
T1 construct: extracellular domain; also called hFcγR IIb
T1 sequence (looked up): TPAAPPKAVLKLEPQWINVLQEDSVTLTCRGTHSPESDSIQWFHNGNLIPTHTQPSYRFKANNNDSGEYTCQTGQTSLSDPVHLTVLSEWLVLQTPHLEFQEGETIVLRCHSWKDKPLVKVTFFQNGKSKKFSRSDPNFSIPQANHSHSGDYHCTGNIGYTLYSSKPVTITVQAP

[2] = molecular target: T2, human FcγRIIa H allotype extracellular domain with C-terminal His-tag (human, UniProt P12318 34-217); test: SPR Biacore T200, Ab captured via Fab-lambda, pH 7.4, 25C;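 also: antibodies captured on a streptavidin chip carrying biotinylated anti-Fab-lambda, with each FcγR injected as analyte in phosphate buffer. KD fitted by 1:1 Langmuir or steady-state model depending on receptor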
T2 construct: extracellular domain; also called hFcγR IIa H
T2 sequence (looked up): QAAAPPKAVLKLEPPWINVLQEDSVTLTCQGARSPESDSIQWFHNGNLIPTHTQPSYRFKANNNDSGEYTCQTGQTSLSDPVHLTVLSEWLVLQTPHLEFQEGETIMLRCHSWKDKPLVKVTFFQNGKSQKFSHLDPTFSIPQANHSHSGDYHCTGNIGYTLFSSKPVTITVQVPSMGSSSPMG
Procedure: (§1) The interaction between the generated antibodies and human FcγRs was analyzed by the following method using Biacore T200. 50 mM Na-Phosphate, 150 mM NaCl, 0.05% Tween20 (pH 7.4) was used as the running buffer, and the assay was performed at 25° C. For the sensor chips, Series S SA (GE Healthcare) chips onto which CaptureSelect Human Fab-lambda Kinetics Biotin Conjugate (Thermo Fisher Scientific) was immobilized were used. The antibodies of interest were captured onto these chips and each FcγR diluted in the running buffer was allowed to interact with them. Chips were regenerated with 10 mM Glycine-HCl (pH 1.5) and 25 mM NaOH, and assay was performed by repeatedly capturing antibodies. The dissociation constants KD (mol/L) for FcγRs of each antibody were calculated using Biacore T200 Evaluation Software 2.0, using the 1:1 Langmuir binding model for FcγRIa and FcγRIIIa and the steady state affinity model for FcγRIIa. For FcγRIIb, the binding amount of FcγRIIb per unit amount of antibody was calculated by correcting the binding amount of FcγRIIb obtained from the sensorgram obtained by the measurement with the amount of antibody captured onto the chip surface.

[3] = molecular target: T3, human FcγRIIIa V allotype extracellular domain with C-terminal His-tag (human, UniProt P08637 17-208); test: as above
T3 construct: extracellular domain; also called hFcγR IIIa V
T3 sequence (P08637 17-208 F176V): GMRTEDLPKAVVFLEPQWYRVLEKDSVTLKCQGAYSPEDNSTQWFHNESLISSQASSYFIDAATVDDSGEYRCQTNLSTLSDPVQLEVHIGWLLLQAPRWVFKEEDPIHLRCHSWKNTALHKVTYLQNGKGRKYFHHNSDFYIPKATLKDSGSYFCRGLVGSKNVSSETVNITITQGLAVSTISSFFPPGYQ
Procedure: as §1

[4] = molecular target: T4, human FcγRIa extracellular domain with C-terminal His-tag (human, UniProt P12314 16-292); test: as above
T4 construct: extracellular domain; also called hFcγR Ia; hFcγRIa
T4 sequence (P12314 16-292): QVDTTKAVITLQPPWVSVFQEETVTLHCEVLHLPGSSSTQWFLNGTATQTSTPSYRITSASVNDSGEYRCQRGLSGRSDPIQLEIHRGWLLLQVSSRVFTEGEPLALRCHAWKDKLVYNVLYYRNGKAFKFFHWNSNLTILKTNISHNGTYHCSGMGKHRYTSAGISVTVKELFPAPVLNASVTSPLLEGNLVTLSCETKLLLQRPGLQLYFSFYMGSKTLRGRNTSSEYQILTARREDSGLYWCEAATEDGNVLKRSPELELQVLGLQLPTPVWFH
Procedure: as §1

[5] = molecular target: T5, human FcγRIIIa F allotype extracellular domain with C-terminal His-tag (human, UniProt P08637 17-208); test: as above
T5 construct: extracellular domain; also called hFcγR IIIa F
T5 sequence (P08637 17-208): as the sequence (P08637 17-208 F176V) above, with V160F counted along it
Procedure: as §1

[6] = molecular target: T6, human FcγRIIa R allotype extracellular domain with C-terminal His-tag (human, UniProt P12318 34-217); test: as above
T6 construct: extracellular domain; also called hFcγR IIa R
T6 sequence (looked up): T2 sequence (looked up) with H134R
Procedure: as §1

[7] = molecular target: T1, human FcγRIIb extracellular domain with …; test: SPR; FcγRIIb at 1000 nM, bound amount per unit captured Ab
Procedure: as §1

human FcRn [8] = molecular target: T7, human FcRn (human, UniProt P55899 24-290; P61769 21-119); test: SPR Biacore T200, Ab captured via Fab-lambda, pH 6.0, 25C, steady state
T7 construct: Prepared by the method of WO 2010/107110; also called hFcRn
Procedure: (§2) The interaction between the generated antibodies and human FcRn was analyzed by the following method using Biacore T200. 50 mM Na-Phosphate, 150 mM NaCl, 0.05% Tween20 (pH 6.0) was used as the running buffer, and the assay was performed at 25° C. For the sensor chip, Series S SA (GE Healthcare) chips onto which CaptureSelect Human Fab-lambda Kinetics Biotin Conjugate (Thermo Fisher Scientific) was immobilized were used. The antibodies of interest were captured onto these chips and FcRn diluted in the running buffer was allowed to interact with them. Chips were regenerated with 10 mM Glycine-HCl (pH 1.5) and 25 mM NaOH, and assay was performed by repeatedly capturing antibodies. The dissociation constant for FcRn of each antibody was calculated using the steady state model, using Biacore T200 Evaluation Software 2.0.

[9] = molecular target: T2, human FcγRIIa H allotype extracellular …; test: SPR; KD of 04H1637-G1m/04L1610-lam1 divided by KD of variant;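 also: biacore T200 SPR at 25 °C, antibodies captured on anti-Fab-lambda SA chip with receptor as analyte, running buffer pH 7.4 for FcγRs and pH 6.0 for FcRn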
Procedure: as §1, §2

[10] = molecular target: T3, human FcγRIIIa V allotype extracellular …; test: as above
Procedure: as §1, §2

[11] = molecular target: T4, human FcγRIa extracellular domain with …; test: as above
Procedure: as §1, §2

[12] = molecular target: T5, human FcγRIIIa F allotype extracellular …; test: as above
Procedure: as §1, §2

[13] = molecular target: T6, human FcγRIIa R allotype extracellular …; test: as above
Procedure: as §1, §2

human FcRn [14] = molecular target: T7, human FcRn; test: as above
Procedure: as §1, §2

Relative binding amount [1]: 2.8
Kd [2]: 230 nM
Kd [3]: 1.7 nM
Kd [4]: 0.043 nM
Kd [5]: 2.9 nM
Kd [6]: 270 nM
Binding amount [7]: 0.022
Kd (human FcRn [8]): 600 nM
Relative value to KD between G1m and hFcγRs [9]: 6.4
Relative value to KD between G1m and hFcγRs [10]: 145
Relative value to KD between G1m and hFcγRs [11]: 1.1
Relative value to KD between G1m and hFcγRs [12]: 479
Relative value to KD between G1m and hFcγRs [13]: 7.6
Relative value to KD between G1m and hFcRn (human FcRn [14]): 2.2
B2: 04H1654-KT481/04L1612-lam1//04H1656-HT498/04L1612-lam1 (antibody)
heavy 1: QVQLVESGGGVVQPGGSLRLSCAASGFTFSSKTMNWVRQAPGKGLEWVSSISTQSHYIYYARSVRGRFTISRDNAKNSLYLQMNSLRAEDTAVYYCARYGKREDMLWVFDYWGQGTLVTVSSASTKGPSVFPLAPSSKSTSGGTAALGCLVKDYFPEPVTVSWNSGALTSGVHTFPAVLQSSGLYSLSSVVTVPSSSLGTQTYICNVNHKPSNTKVDKRVEPKSCDKTHTCPPCPAPEFQWGPMVFLFPPKPKDVLMISRTPEVTCVVVDVSDEEPEVKFNWYVDGVEVHNAKTKPREEQYNATYRVVSVLPVLHQDWLNGKEYKCKVSNDALPAPEEKTISKAKGQPREPQVYTLPPSRKEMTKNQVSLTCLVKGFYPSDIAVEWESNGQPENNYKTTPPVLDSDGSFFLYSKLTVDKSRWQQGNVFSCSVMHEALHAHTTRKELSLSP
heavy 2: B2 heavy 1 with R62E, K101A, F239L, Q240L, W241A, M244S, D273H, K339E, K361E, K444E
light: QSALTQPPSASGSPGQSVTISCEGPSTGVGDYTYVHWYQQHPGKAPKLMIYFTSKKPSGVPDRFSGSKSGNTASLTVSGLQAEDEADYYCQTYAAPLGPMFGGGTKLTVLGQPKAAPSVTLFPPSSEELQANKATLVCLISDFYPGAVTVAWKADSSPVKAGVETTTPSKQSNNKYAASSYLSLTPEQWKSHRSYSCQVTHEGSTVEKTVAPTECS
notes: Heterodimerized antibody with N434A/Y436T/Q438R/S440E

Relative binding amount [1]: 3.2
Kd [2]: 81 nM
Kd [3]: 2.1 nM
Kd [4]: 0.046 nM
Kd [5]: 3.8 nM
Kd [6]: 150 nM
Binding amount [7]: 0.026
Kd (human FcRn [8]): 580 nM
Relative value to KD between G1m and hFcγRs [9]: 18
Relative value to KD between G1m and hFcγRs [10]: 115
Relative value to KD between G1m and hFcγRs [11]: 1.1
Relative value to KD between G1m and hFcγRs [12]: 363
Relative value to KD between G1m and hFcγRs [13]: 13.9
Relative value to KD between G1m and hFcRn (human FcRn [14]): 2.3
B3: 04H1654-KT473/04L1610-lam1//04H1656-HT482/04L1610-lam1 (antibody)
heavy 1: B2 heavy 1 with E337I
heavy 2: QVQLVESGGGVVQPGGSLRLSCAASGFTFSSKTMNWVRQAPGKGLEWVSSISTQSHYIYYAESVRGRFTISRDNAKNSLYLQMNSLRAEDTAVYYCARYGAREDMLWVFDYWGQGTLVTVSSASTKGPSVFPLAPSSKSTSGGTAALGCLVKDYFPEPVTVSWNSGALTSGVHTFPAVLQSSGLYSLSSVVTVPSSSLGTQTYICNVNHKPSNTKVDKRVEPKSCDKTHTCPPCPAPELLAGPSVFLFPPKPKDVLMISRTPEVTCVVVDVSHEEPEVKFNWYVDGVEVHNAKTKPREEQYNATYRVVSVLPVLHQDWLNGKEYKCKVSNDALPKPDEETISKAKGQPREPQVYTLPPSREEMTKNQVSLTCLVKGFYPSDIAVEWESNGQPENNYKTTPPVLDSDGSFFLYSKLTVDKSRWQQGNVFSCSVMHEALHAHTTREELSLSP
light: B2 light with T33N, Y34W
notes: Heterodimerized antibody with N434A/Y436T/Q438R/S440E; also called SW1610-ART6+ACT1

Relative binding amount [1]: 3.2
Kd [2]: 91 nM
Kd [3]: 2.2 nM
Kd [4]: 0.048 nM
Kd [5]: 3.9 nM
Kd [6]: 150 nM
Binding amount [7]: 0.026
Kd (human FcRn [8]): 620 nM
Relative value to KD between G1m and hFcγRs [9]: 16.2
Relative value to KD between G1m and hFcγRs [10]: 110
Relative value to KD between G1m and hFcγRs [11]: 1
Relative value to KD between G1m and hFcγRs [12]: 355
Relative value to KD between G1m and hFcγRs [13]: 13.8
Relative value to KD between G1m and hFcRn (human FcRn [14]): 2.1
B7: 04H1654-KT473/04L1612-lam1//04H1656-HT482/04L1612-lam1 (antibody)
heavy 1: B2 heavy 1 with E337I
heavy 2: B3 heavy 2
light: B2 light
notes: as for B2

Relative binding amount [1]: 2.7
Kd [2]: 230 nM
Kd [3]: 1.6 nM
Kd [4]: 0.033 nM
Kd [5]: 2.8 nM
Kd [6]: 260 nM
Binding amount [7]: 0.022
Kd (human FcRn [8]): 570 nM
Relative value to KD between G1m and hFcγRs [9]: 6.5
Relative value to KD between G1m and hFcγRs [10]: 152
Relative value to KD between G1m and hFcγRs [11]: 1.5
Relative value to KD between G1m and hFcγRs [12]: 495
Relative value to KD between G1m and hFcγRs [13]: 7.7
Relative value to KD between G1m and hFcRn (human FcRn [14]): 2.3
B8: 04H1654-KT481/04L1610-lam1//04H1656-HT498/04L1610-lam1 (antibody)
heavy 1: B2 heavy 1
heavy 2: B3 heavy 2 with K335A, D337E
light: B2 light with T33N, Y34W
notes: as for B2

The remaining lines, values behind:

B1: 04H1654-KT462/04L1610-lam1//04H1656-HT445/04L1610-lam1 (antibody, human IgG1, lambda)
heavy 1: B2 heavy 1 with E337I, A439N, T441Y, R443Q, E445S
heavy 2: B3 heavy 2 with A439N, T441Y, R443Q, E445S
light: B2 light with T33N, Y34W
notes: Heterodimerized antibody, IGHG1*03 constant region, E356K / K439E
Relative binding amount [1]: 3.1
Kd [2]: 110 nM
Kd [3]: 2.2 nM
Kd [4]: 0.03 nM
Kd [5]: 3.3 nM
Kd [6]: 160 nM
Binding amount [7]: 0.025
Kd (human FcRn [8]): 1500 nM
Relative value to KD between G1m and hFcγRs [9]: 13.9
Relative value to KD between G1m and hFcγRs [10]: 110
Relative value to KD between G1m and hFcγRs [11]: 1.6
Relative value to KD between G1m and hFcγRs [12]: 415
Relative value to KD between G1m and hFcγRs [13]: 13
Relative value to KD between G1m and hFcRn (human FcRn [14]): 0.9

B4: 04H1654-KT461/04L1612-lam1//04H1656-HT443/04L1612-lam1 (antibody, human IgG1, lambda)
heavy 1: B2 heavy 1 with A439N, T441Y, R443Q, E445S
heavy 2: B3 heavy 2 with K335A, D337E, A439N, T441Y, R443Q, E445S
light: B2 light
notes: Heterodimerized antibody
Relative binding amount [1]: 3.1
Kd [2]: 210 nM
Kd [3]: 1.5 nM
Kd [4]: 0.039 nM
Kd [5]: 2.6 nM
Kd [6]: 250 nM
Binding amount [7]: 0.025
Kd (human FcRn [8]): 1600 nM
Relative value to KD between G1m and hFcγRs [9]: 7.1
Relative value to KD between G1m and hFcγRs [10]: 159
Relative value to KD between G1m and hFcγRs [11]: 1.3
Relative value to KD between G1m and hFcγRs [12]: 537
Relative value to KD between G1m and hFcγRs [13]: 8.2
Relative value to KD between G1m and hFcRn (human FcRn [14]): 0.8

B5: 04H1654-KT462/04L1612-lam1//04H1656-HT445/04L1612-lam1 (antibody, human IgG1, lambda)
heavy 1: B2 heavy 1 with E337I, A439N, T441Y, R443Q, E445S
heavy 2: B3 heavy 2 with A439N, T441Y, R443Q, E445S
light: B2 light
notes: Heterodimerized antibody
Relative binding amount [1]: 3.4
Kd [2]: 91 nM
Kd [3]: 2.3 nM
Kd [4]: 0.041 nM
Kd [5]: 3.4 nM
Kd [6]: 140 nM
Binding amount [7]: 0.028
Kd (human FcRn [8]): 1600 nM
Relative value to KD between G1m and hFcγRs [9]: 16.1
Relative value to KD between G1m and hFcγRs [10]: 106
Relative value to KD between G1m and hFcγRs [11]: 1.2
Relative value to KD between G1m and hFcγRs [12]: 408
Relative value to KD between G1m and hFcγRs [13]: 14.2
Relative value to KD between G1m and hFcRn (human FcRn [14]): 0.8

B6: 04H1654-KT461/04L1610-lam1//04H1656-HT443/04L1610-lam1 (antibody, human IgG1, lambda)
heavy 1: B2 heavy 1 with A439N, T441Y, R443Q, E445S
heavy 2: B3 heavy 2 with K335A, D337E, A439N, T441Y, R443Q, E445S
light: B2 light with T33N, Y34W
notes: Heterodimerized antibody
Relative binding amount [1]: 3.1
Kd [2]: 200 nM
Kd [3]: 1.5 nM
Kd [4]: 0.032 nM
Kd [5]: 2.6 nM
Kd [6]: 240 nM
Binding amount [7]: 0.025
Kd (human FcRn [8]): 1500 nM
Relative value to KD between G1m and hFcγRs [9]: 7.3
Relative value to KD between G1m and hFcγRs [10]: 156
Relative value to KD between G1m and hFcγRs [11]: 1.5
Relative value to KD between G1m and hFcγRs [12]: 526
Relative value to KD between G1m and hFcγRs [13]: 8.4
Relative value to KD between G1m and hFcRn (human FcRn [14]): 0.9
